Where “and” joins values, the source holds several entries; their conditions need not be identical. Equal entries are not always repeated. Entries after “also recorded” stand apart in the source; their conditions may differ. Where two headings read alike, the source gives them in different places.
Columns and labels:
[1] = system: TF-induced clotting of TFPI-depleted plasma; test: dPT assay in TFPI-depleted plasma (1:50 dilution of Simplastin); assay type: biochemical, human; settings: for prolongation of clotting time: increasing concentrations, alone, 1:50 dilution of Simplastin
Protocol: FIG. 2B: Effects of CT-TFPI (.quadrature.), heparin (.circle-solid.), and sequential addition of CT-TFPI and heparin (.tangle-solidup.) on clotting time. dPTs were determined as described in METHODS using 1:50 dilution of Simplastin®.
Pooled plasma was prepared by mixing four (4) units of individual plasmas, and TFPI-depleted pooled plasma was obtained by passing the pooled plasma through a rabbit anti-human TFPI-Ig Sepharose® 4B column as described previously [(Wun, J. Biol. Chem. 265:16096-16101 (1990)].
(§1) Rabbit brain thromboplastin (TF;Simplastin®) was diluted to varying degrees ranging from 1:4 to 1:50 with a buffer containing 12.5 mM CaCl2, 75 mM NaCl, 0.5 mg/ml bovine serum albumin, and 0.02% NaN3, for determination of TF-induced clotting time in human plasma. Fifty (50) μl of human plasma were mixed with 50 μl of DB, heparin, TFPI, or preformed complexes of heparin/TFPI in DB in the well of a Fibrometer at 37° for 1 min. Two hundred (200) μl of appropriately diluted thromboplastin reagent were then added and the time to clotting was determined.
(§2) The dPTs reported here are the average of 2 to 8 determinations, depending on the length of the clotting time. When the clotting time was short (<100 sec), the variations between determinations are small and 2-4 assay values were averaged for each data point. When the clotting time is long (>100 sec), the variations between determinations are larger and 5-8 assay values are averaged for each data point. […] The concentrations of heparin and TFPI are expressed as units or μg per ml of plasma, not as that in the final assay mixture.
In the present work, FL-TFPI and CT-TFPI were separated by Mono S chromatography as described before [Wun, et al., Thromb. Haemost. 68, 54-59 (1992)], and the effects of heparin, FL-TFPI, or CT-TFPI alone, and combinations of heparin/FL-TFPI, and heparin/CT-TFPI were compared. FIGS. 2A and B show the results.

[2] = pH 7.4
Text: (§6) The solubility of non-glycosylated recombinant E. coli-derived FL-TFPI [Diaz-Collier, et al., Thromb.

[3] = system: extrinsic and the common pathways; test: Prothrombin time (PT) assay; assay type: biochemical, human
Protocol: (§3) Measurement of PT and APTT are as described in METHODS. PT and APTT ratios are calculated by dividing the clotting times in the presence of the indicated amounts of FL-TFPI or heparin by the clotting times in the absence of anticoagulants.
Ninety (90) μl of plasma were mixed with 10 μl of DB (dilution buffer containing 10 mM Tris/HCl, pH 7.4, 150 mM NaCl, 1 mM Na2 SO4, 1 mg/ml bovine serum albumin, and 0.02% NaN3), FL-TFPI solution, or heparin solution in the Fibrometer well at 37° for 1 min. Two hundred (200) μl of Simplastin® were then added and the time to clotting was recorded.
(§4) PT is a global test that primarily measures the functionality of the extrinsic and the common pathways; while APTT is a procedure which evaluates that of the intrinsic and the common pathways. The individual effects of heparin and FL-TFPI on PT and APTT were examined to determine the primary sites of their actions.

[4] = cited from earlier work
[5] = system: TF-induced clotting in human plasma; test: Dilute prothrombin time (dPT) assay: TF-induced clotting of human plasma; assay type: biochemical; settings: 1:4 dilution of Simplastin
Protocol: dPT assay was carried out using 1:4 dilution of Simplastin®. Closed square and closed triangle on the abscissa indicate the clotting times of the plasma supplemented with control buffer and 2 μg/ml FL-TFPI, respectively.
dPT assay was carried out using 1:40 dilution of Simplastin®. Closed square and closed triangle on the abscissa indicate the clotting times of the plasma supplemented with control buffer and 0.3 μg/ml FL-TFPI, respectively.
as §1, §2
In one-stage TF-induced plasma clotting assay, clotting time is dependent on the concentration of TF and the concentrations of anticoagulants present. […] In the absence of added anticoagulants, the addition of this concentration of TF caused the plasma to clot in 20 sec (closed square).

[6] = Plasma levels of TFPI following bolus injection and constant infusion; assay type: in vivo, rabbit; settings: infusion of 11.4 μg/kg/min FL-TFPI, 4 h; PCFIA
Protocol: For FL-TFPI, a bolus of 0.5 mg/kg was injected through the femoral vein followed by constant infusion of FL-TFPI (11.4 μg/kg/min).
For heparin/FL-TFPI, a bolus of preformed heparin (0.24 mg/kg)/FL-TFPI (0.19 mg/kg) complex was injected followed by constant infusion of heparin (5.4 μg/kg/min)/FL-TFPI (4.3 μg/kg/min) complex. Infusions were carried out over a 4-h period. Plasma levels of TFPI were measured by PCFIA assay.
For constant infusion studies, a bolus of FL-TFPI (0.5 mg/kg) or pre-formed heparin (0.24 mg/kg)/FL-TFPI (0.19 mg/kg) complex was injected through the femoral vein, followed by constant infusion of FL-TFPI (11.4 μg/kg/min)or heparin (5.4 μg/kg/min)/FL-TFPI (4.3 μg/kg/min) complex over a 4-hr period. Blood collection and plasma sample preparation were carried out as described above.
(§5) Plasma levels of TFPI antigen were measured by PCFIA assay. Functional TFPI activity in the plasma was also measured by dPT assay using each rabbit's own control plasma supplemented with known concentrations of FL-TFPI as a reference standard [Palmier, et al., Thromb. Haemost. 68, 33-36 (1992)]. Data from individual animals were fitted to the general bi-exponential equation: […]

[7] = Pharmacokinetics following bolus injection in rabbits; assay type: in vivo, rabbit; settings: for tα: bolus FL-TFPI 1.5 mg/kg or heparin 1.9 mg/kg/FL-TFPI 1.5 mg/kg; for % AUCα / % AUCβ / Clearence / Vd / tβ: bolus
Protocol: The pharmacokinetics study was carried out as described in METHODS. Rabbits were injected with a bolus of FL-TFPI (1.5 mg/kg) or heparin (1.9 mg/kg)/FL-TFPI (1.5 mg/kg) complex.
as §5
where C is the concentration of TFPI at time t, and A and B are the intercept values (to) extrapolated from a and b, the first order elimination rate constants.

[8] = system: intrinsic and the common pathways; test: Activated partial thromboplastin time (APTT) assay; assay type: biochemical, human
Protocol: as §3
Ninety (90) μl of plasma were mixed with 10 μl of DB, FL-TFPI solution, or heparin solution in the Fibrometer well at 37° for 1 min. One hundred (100) μl of Dade's activated cephaloplastin reagent were added and the mixture was incubated for exactly 2 min. A calcium solution (100 μl of 25 mM CaCl2) was added and the time to clotting was recorded.
as §4

[9] = system: fibrin-dependent glomerulonephritis model; settings: clinical dose of heparin; cited from earlier work
factor Xa = settings: purified system; cited from earlier work
[10] = Solubility of FL-TFPI and heparin/FL-TFPI complexes
Text: as §6

[11] = bolus injection, rabbits, PCFIA
[12] = individual rabbits #1-#3, PCFIA
[13] = up to 40 μg/ml N-acetyl heparin (FIG. 5)

Question: Which “potency in prolonging the clotting time compared with CT-TFPI” value ([1]; FIG. 2) does the source give for “FL-TFPI: Recombinant full-length (FL-) TFPI, tissue factor pathway inhibitor” here?
Answer: much more potent in prolonging the clotting time than CT-TFPI; also recorded: far more potent than CT-TFPI in prolonging the TF-induced clotting time; also recorded: far more potent than CT-TFPI alone or in combination with heparin

Question: What about the “prolongation of clotting time” value [1] of the same substance?
Answer: increasingly prolong the clotting time in a moderate manner

Question: What about the solubility [2] of the same substance?
Answer: exceeds 5 mg/ml

Question: What about the “PT ratio increase compared with APTT ratio” value ([3]; FIG. 1) of the same substance?
Answer: much greater increase of the PT ratio than the APTT ratio

Question: And the “primary site of action” value ([3]; from PT and APTT ratios)?
Answer: primarily affects the extrinsic pathway

Question: What about the “NaCl required for dissociation from heparin” value [4] of the same substance?
Answer: 0.6 to 1 M

Question: And the “prolongation of the clotting time” value ([5]; 2 μg/ml FL-TFPI alone)?
Answer: 58 s

Question: What about the clotting time ([5]; 2 μg/ml FL-TFPI alone (FIG. 3)) of the same substance?
Answer: 78 s

Question: And the clotting time ([5]; 2 μg/ml FL-TFPI alone (FIG. 5))?
Answer: 90 s

Question: What about the clotting time ([5]; 2 μg/ml FL-TFPI alone (FIG. 6)) of the same substance?
Answer: 82 s

Question: What about the “steady state plasma level of TFPI” value [6] of the same substance?
Answer: ~ 2 μg/ml

Question: And the “clearance of TFPI antigen (PCFIA) vs functional TFPI activity (dPT)” value ([7]; bolus injection, rabbits)?
Answer: closely matched

Question: And the “faster overall clearance relative to heparin/FL-TFPI complex” value ([7]; bolus injection, rabbits)?
Answer: ~ 2.6 fold

Question: What about the overall clearance ([7]; bolus injection, rabbits) of the same substance?
Answer: 5.7 mL/min/kg

Question: And the t1/2α [7, 11]?
Answer: 1.4 min

Question: And the t1/2β [7, 11]?
Answer: 92 min

Question: What about the tα [7, 12] of the same substance?
Answer: 1.5 min and 1.7 min and 1.0 min

Question: What about the “% AUCα” value [7, 12] of the same substance?
Answer: 9.4% and 7.2% and 7.9%

Question: What about the “% AUCβ” value [7, 12] of the same substance?
Answer: 90.6% and 92.8% and 92.1%

Question: And the Clearence [7, 12]?
Answer: 5.9 mL/min/kg and 4.3 mL/min/kg and 6.8 mL/min/kg

Question: And the Vd [7, 12]?
Answer: 0.118 L/kg and 0.115 L/kg

Question: And the tβ [7, 12]?
Answer: 89 min and 96 min and 91 min

Question: What about the tα ([7]; mean of 3 rabbits (±SEM on separate line), PCFIA) of the same substance?
Answer: 1.4 min

Question: What about the “% AUCα” value ([7]; mean of 3 rabbits, PCFIA) of the same substance?
Answer: 8.2%

Question: And the “% AUCβ” value ([7]; mean of 3 rabbits, PCFIA)?
Answer: 92%

Question: And the Clearence ([7]; mean of 3 rabbits, PCFIA)?
Answer: 5.7 mL/min/kg

Question: And the Vd ([7]; mean of 3 rabbits, PCFIA)?
Answer: 0.117 L/kg

Question: What about the tβ ([7]; mean of 3 rabbits, PCFIA) of the same substance?
Answer: 92 min

Question: And the “% AUCβ” value ([7]; mean of 3 rabbits, PCFIA, listed as TFPI)?
Answer: 91.8%

Question: With N-acetyl heparin as the substance, how does the clotting time [5, 13] read?
Answer: ~ 18 sec

Question: And the “clotting time (in words)” value [5, 13]?
Answer: did not alter the clotting time

Question: With heparin as the substance, how does the “APTT ratio increase compared with PT ratio” value ([8]; FIG. 1) read?
Answer: much greater increase of APTT ratio than PT ratio

Question: What about the “primary site of action” value ([8]; from PT and APTT ratios) of the same substance?
Answer: mainly inhibits the intrinsic pathway

Question: What about the “prolongation of clotting time” value [1] of the same substance?
Answer: increasingly prolong the clotting time in a moderate manner

Question: And the “beneficial effect on the disease process” value [9]?
Answer: did not produce a beneficial effect on the disease process

Question: And the “rate of factor Xa inhibition by TFPI” value (factor Xa)?
Answer: enhances the rate of factor Xa inhibition by TFPI in a concentration dependent and biphasic manner

Question: What about the “prolongation of the clotting time” value ([5]; 10 μg/ml heparin alone) of the same substance?
Answer: 26 s

Question: What about the clotting time ([5]; heparin beyond 1.25 μg/ml (FIG. 3)) of the same substance?
Answer: progressively prolonged

Question: What about the clotting time ([5]; heparin up to 1.25 μg/ml (FIG. 3)) of the same substance?
Answer: did not alter the clotting time

Question: Which results are given for “non-glycosylated recombinant E. coli-derived FL-TFPI: non-glycosylated recombinant E. coli-derived FL-TFPI”?
Answer: solubility ([10]; Dulbecco's phosphate-buffered saline, estimated): approximately 200 μg/ml; solubility ([10]; saline solutions, compared with glycosylated FL-TFPI): even lower
